Test results: IntAct's records for PubMed 28380382

B1: Complex III assembly factor LYRM7 (Homo sapiens), Q5U5X0 (parent)
chain: MGRAVKVLQLFKTLHRTRQQVFKNDARALEAARIKINEEFKNNKSETSSKKIEELMKIGSDVELLLRTSVIQGIHTDHNTLKLVPRKDLLVENVPYCDAPTQKQ
partner: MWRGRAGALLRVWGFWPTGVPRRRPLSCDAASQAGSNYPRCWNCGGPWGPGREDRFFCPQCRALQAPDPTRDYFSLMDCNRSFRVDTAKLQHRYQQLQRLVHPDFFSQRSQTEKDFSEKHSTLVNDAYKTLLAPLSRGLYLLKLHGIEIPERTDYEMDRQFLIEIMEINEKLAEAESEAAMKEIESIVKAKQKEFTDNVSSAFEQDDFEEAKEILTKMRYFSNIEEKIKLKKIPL

Variants of: B1
Settings: with hsc20_human HSCB
For L10A;F11A;K12A, the “effect of a mutation on the interaction” value was “disrupting interaction strength”.
V21A;F22A;K23A was tested, and the “effect of a mutation on the interaction” value was “with no effect”.
In the case of D25N, the “effect of a mutation on the interaction” value is reported as “with no effect”.
